# B1: Coiled-coil alpha-helical rod protein 1 (Homo sapiens), Q8TD31 (parent)
# chain: MFPPSGSTGLIPPSHFQARPLSTLPRMAPTWLSDIPLVQPPGHQDVSERRLDTQRPQVTMWERDVSSDRQEPGRRGRSWGLEGSQALSQQAEVIVRQLQELRRLEEEVRLLRETSLQQKMRLEAQAMELEALARAEKAGRAEAEGLRAALAGAEVVRKNLEEGSQRELEEVQRLHQEQLSSLTQAHEEALSSLTSKAEGLEKSLSSLETRRAGEAKELAEAQREAELLRKQLSKTQEDLEAQVTLVENLRKYVGEQVPSEVHSQTWELERQKLLETMQHLQEDRDSLHATAELLQVRVQSLTHILALQEEELTRKVQPSDSLEPEFTRKCQSLLNRWREKVFALMVQLKAQELEHSDSVKQLKGQVASLQEKVTSQSQEQAILQRSLQDKAAEVEVERMGAKGLQLELSRAQEARRRWQQQTASAEEQLRLVVNAVSSSQIWLETTMAKVEGAAAQLPSLNNRLSYAVRKVHTIRGLIARKLALAQLRQESCPLPPPVTDVSLELQQLREERNRLDAELQLSARLIQQEVGRAREQGEAERQQLSKVAQQLEQELQQTQESLASLGLQLEVARQGQQESTEEAASLRQELTQQQELYGQALQEKVAEVETRLREQLSDTERRLNEARREHAKAVVSLRQIQRRAAQEKERSQELRRLQEEARKEEGQRLARRLQELERDKNLMLATLQQEGLLSRYKQQRLLTVLPSLLDKKKSVVSSPRPPECSASAPVAAAVPTRESIKGSLSVLLDDLQDLSEAISKEEAVCQGDNLDRCSSSNPQMSS
# partner: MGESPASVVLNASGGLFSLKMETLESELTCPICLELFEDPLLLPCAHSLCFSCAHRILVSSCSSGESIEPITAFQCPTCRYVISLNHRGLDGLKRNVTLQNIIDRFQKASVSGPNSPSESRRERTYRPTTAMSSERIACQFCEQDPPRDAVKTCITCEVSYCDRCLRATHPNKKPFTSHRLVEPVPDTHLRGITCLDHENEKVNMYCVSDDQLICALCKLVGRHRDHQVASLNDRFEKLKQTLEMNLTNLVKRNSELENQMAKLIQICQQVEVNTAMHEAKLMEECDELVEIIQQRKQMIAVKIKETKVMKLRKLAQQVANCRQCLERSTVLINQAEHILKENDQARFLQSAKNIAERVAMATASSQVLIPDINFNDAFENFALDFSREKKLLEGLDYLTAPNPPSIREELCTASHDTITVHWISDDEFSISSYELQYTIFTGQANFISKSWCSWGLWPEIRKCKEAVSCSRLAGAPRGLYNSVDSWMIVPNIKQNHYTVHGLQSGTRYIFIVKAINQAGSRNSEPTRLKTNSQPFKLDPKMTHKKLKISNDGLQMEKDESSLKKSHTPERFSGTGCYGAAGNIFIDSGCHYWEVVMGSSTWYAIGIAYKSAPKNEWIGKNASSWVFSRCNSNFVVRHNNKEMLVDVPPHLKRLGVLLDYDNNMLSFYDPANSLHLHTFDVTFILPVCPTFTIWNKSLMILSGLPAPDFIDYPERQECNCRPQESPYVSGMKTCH
# B2: Coiled-coil alpha-helical rod protein 1 (Homo sapiens), Q8TD31 (parent)
# chain: B1 chain
# partner: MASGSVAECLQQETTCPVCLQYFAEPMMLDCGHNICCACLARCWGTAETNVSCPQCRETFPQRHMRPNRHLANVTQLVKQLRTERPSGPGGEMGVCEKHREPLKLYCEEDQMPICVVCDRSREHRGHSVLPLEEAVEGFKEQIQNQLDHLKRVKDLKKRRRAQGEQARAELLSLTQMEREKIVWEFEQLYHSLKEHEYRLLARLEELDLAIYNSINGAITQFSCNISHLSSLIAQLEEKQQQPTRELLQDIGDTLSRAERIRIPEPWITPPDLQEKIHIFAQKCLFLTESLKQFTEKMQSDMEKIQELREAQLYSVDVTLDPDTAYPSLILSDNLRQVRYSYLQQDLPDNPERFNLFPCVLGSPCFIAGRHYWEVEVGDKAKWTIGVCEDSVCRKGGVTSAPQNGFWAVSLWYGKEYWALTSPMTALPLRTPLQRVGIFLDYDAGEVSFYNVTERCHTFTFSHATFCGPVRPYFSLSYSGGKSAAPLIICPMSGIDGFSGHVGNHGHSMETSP
# B3: Coiled-coil alpha-helical rod protein 1 (Homo sapiens), Q8TD31 (parent)
# chain: B1 chain
# partner: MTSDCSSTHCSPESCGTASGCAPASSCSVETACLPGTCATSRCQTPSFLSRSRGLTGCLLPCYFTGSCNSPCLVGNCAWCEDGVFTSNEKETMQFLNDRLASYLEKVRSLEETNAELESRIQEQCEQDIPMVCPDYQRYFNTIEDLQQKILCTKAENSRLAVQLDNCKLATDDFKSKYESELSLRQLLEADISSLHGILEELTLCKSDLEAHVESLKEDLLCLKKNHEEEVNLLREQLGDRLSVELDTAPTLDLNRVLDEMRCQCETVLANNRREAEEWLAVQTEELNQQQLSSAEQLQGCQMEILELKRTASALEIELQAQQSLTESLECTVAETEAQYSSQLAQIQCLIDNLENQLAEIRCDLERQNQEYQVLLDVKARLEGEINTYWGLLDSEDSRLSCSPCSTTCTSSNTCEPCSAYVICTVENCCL
# B4: Chorion-specific transcription factor GCMb (Homo sapiens), O75603 (parent)
# chain: MPAAAVQEAVGVCSYGMQLSWDINDPQMPQELALFDQFREWPDGYVRFIYSSDEKKAQRHLSGWAMRNTNNHNGHILKKSCLGVVVCTQACTLPDGSRLQLRPAICDKARLKQQKKACPNCHSALELIPCRGHSGYPVTNFWRLDGNAIFFQAKGVHDHPRPESKSETEARRSAIKRQMASFYQPQKKRIRESEAEENQDSSGHFSNIPPLENPEDFDIVTETSFPIPGQPCPSFPKSDVYKATCDLATFQGDKMPPFQKYSSPRIYLPRPPCSYELANPGYTNSSPYPTLYKDSTSIPNDTDWVHLNTLQCNVNSYSSYERSFDFTNKQHGWKPALGKPSLVERTNHGQFQAMATRPYYNPELPCRYLTTPPPGAPALQTVITTTTKVSYQAYQPPAMKYSDSVREVKSLSSCNYAPEDTGMSVYPEPWGPPVTVTRAASPSGPPPMKIAGDCRAIRPTVAIPHEPVSSRTDEAETWDVCLSGLGSAVSYSDRVGPFFTYNNEDF
# partner: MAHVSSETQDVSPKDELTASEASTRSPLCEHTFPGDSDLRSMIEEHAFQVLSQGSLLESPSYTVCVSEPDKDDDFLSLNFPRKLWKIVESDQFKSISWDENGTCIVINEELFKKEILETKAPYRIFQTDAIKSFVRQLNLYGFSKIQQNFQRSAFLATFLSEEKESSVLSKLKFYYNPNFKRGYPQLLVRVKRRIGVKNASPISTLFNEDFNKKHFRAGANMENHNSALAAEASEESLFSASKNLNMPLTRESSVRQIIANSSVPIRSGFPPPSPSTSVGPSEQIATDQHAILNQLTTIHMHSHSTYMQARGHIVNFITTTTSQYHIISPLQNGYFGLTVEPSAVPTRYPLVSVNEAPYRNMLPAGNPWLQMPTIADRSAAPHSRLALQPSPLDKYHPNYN
# B5: Coiled-coil alpha-helical rod protein 1 (Homo sapiens), Q8TD31 (parent)
# chain: B1 chain
# partner: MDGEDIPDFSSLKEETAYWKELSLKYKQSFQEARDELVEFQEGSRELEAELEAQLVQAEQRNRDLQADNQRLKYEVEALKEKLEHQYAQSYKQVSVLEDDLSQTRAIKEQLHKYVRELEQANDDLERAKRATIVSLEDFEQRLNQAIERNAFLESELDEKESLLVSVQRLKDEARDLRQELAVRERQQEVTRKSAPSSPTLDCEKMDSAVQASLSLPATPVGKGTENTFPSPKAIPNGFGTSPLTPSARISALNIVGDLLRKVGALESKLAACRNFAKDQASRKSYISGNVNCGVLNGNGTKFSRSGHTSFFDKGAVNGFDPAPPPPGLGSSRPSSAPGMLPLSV
# Variants of: B1
# Details: with trim1_human MID2, Q9UJV3
row,Variant,effect of a mutation on the interaction
1,W337R,disrupting interaction strength

# Variants of: B2
# Details: with tri27_human TRIM27, P14373
row,Variant,effect of a mutation on the interaction
1,W337R,disrupting interaction strength

# Variants of: B3
# Details: with KRT40, Q6A162
row,Variant,effect of a mutation on the interaction
1,W337R,with no effect

# Variants of: B4
# Details: with hsfy1_human HSFY1, Q96LI6
row,Variant,effect of a mutation on the interaction
1,MPAAAVQEAVGVCSYGMQLSWDINDPQMPQELALFDQFREWPDGYVRFIYSSDEKKAQRHLSGWAMRNTNNHNGHILKKSCLGVVVCTQACTLPDGSRLQLRPAICDKARLKQQKKACPNCHSALELIPCRGHSGYPVTNFWRLDGNAIFFQAKGVHDHPRPESKSETEARRSAIKRQMASFYQPQKKRIRESEAEENQDSSGHFSNIPPLENPEDFDIVTETSFPIPGQPCPSFPKSDVYKATCDLATFQGDKMPPFQKYSSPRIYLPRPPCSYELANPGYTNSSPYPTLYKDSTSIPNDTDWVHLNTLQCNVNSYSSYERSFDFTNKQHGWKPALGKPSLVERTNHEQFQAMATRPYYNPELPCRYLTTPPPGAPALQTVITTTTKVSYQAYQPPAMKYSDSVREVKSLSSCNYAPEDTGMSVYPEPWGPPVTVTRAASPSGPPPMKIAGDCRAIRPTVAIPHEPVSSRTDEAETWDVCLSGLGSAVSYSDRVGPFFTYNNEDF [G349E],with no effect

# Variants of: B5
# Details: with ndel1_human NDEL1, Q9GZM8
row,Variant,effect of a mutation on the interaction
1,W337R,disrupting interaction strength

# Reference: IntAct's records for PubMed 29892012
